Target: -
Experiment: kinetic binding (Ka/Kdis fit)

Kd: 45.9 nM
B1: Ch-15A7.5 (antibody, V domains shown)
VH: EVKLVESGGGLVQPGGSRKLSCAASGFTFSNYGMAWVRQAPGKGPEWVAFISNLAYGINYADTVTGRFTISRENAKNTLYLEMRSLRSEDTAMYYCARGARATGWFAYWGQGTLVTVSA
VL: DIVMTQSQKFMSTSIGDRVSVTCKASQNVDTHVAWYQEKPGQSPKALIYSASYRYSGVPDRFTGSGSGTDFTLTISNVQSEDLADYFCQQYNSYPLTFGGGTKLEIK
